Source: EP4745153A1, “GLP-1, GIP AND GCG RECEPTOR […] USE THEREOF” (Jiangsu Hengrui Pharmaceuticals Co., Ltd., priority 2023, dated 2025)
Where two headings read alike, the source gives them in different places. Starred links: 1 amine or outer side, 2 acyl side, 3 side chain; linkers in the order of their positions; H or OH if unused. Non-standard residues stand in square brackets, D forms with d. Groups on a side chain read outwards from the residue. No end group written: not given here. *: point of attachment. C20 diacid = O=C(O)CCCCCCCCCCCCCCCCCCC(=O)*; γGlu = O=C(O)[C@H](CCC(=O)[*:2])N[*:1]; αMeL = CC(C)C[C@](C)(N)C(=O)O; αMeK = C[C@](N)(CCCCN)C(=O)O; AEEA = NCCOCCOCC(=O)O; Aib = CC(C)(N)C(=O)O

T1: human glucose-dependent insulinotropic polypeptide receptor (human, UniProt P48546 22-466)
T1 sequence (looked up): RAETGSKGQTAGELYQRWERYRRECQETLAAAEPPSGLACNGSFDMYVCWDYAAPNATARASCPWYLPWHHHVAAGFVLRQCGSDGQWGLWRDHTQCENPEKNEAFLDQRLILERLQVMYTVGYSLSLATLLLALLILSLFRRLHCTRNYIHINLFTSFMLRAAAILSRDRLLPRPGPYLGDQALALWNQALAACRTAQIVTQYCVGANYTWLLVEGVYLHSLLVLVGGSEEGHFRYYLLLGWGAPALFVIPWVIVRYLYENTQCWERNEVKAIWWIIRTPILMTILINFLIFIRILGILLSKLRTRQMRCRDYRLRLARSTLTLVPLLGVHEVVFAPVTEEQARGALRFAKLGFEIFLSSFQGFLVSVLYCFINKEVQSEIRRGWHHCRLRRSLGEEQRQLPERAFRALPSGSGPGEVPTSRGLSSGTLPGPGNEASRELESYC


Experiments:
Test in all cases: cell-based or functional assay
[1] = target: T1, human glucose-dependent insulinotropic …
human glucagon receptor [2] = target: T2, human glucagon receptor (human, UniProt P47871 26-477)
T2 sequence (P47871 26-477): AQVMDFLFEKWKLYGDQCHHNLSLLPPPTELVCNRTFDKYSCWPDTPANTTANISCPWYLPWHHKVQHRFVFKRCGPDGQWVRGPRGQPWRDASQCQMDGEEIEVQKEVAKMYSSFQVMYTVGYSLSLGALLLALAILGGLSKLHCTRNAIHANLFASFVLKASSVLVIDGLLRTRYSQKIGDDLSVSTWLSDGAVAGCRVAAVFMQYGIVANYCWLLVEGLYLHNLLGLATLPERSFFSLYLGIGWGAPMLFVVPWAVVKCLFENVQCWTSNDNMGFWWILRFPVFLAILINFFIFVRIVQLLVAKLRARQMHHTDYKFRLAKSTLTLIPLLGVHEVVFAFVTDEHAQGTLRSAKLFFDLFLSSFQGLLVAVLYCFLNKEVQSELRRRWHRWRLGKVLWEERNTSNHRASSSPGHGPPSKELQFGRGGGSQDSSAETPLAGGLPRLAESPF

[3] = target: T3, human glucagon-like peptide-1 receptor (human, UniProt P43220 24-463)
[4] = target: T1, human glucose-dependent insulinotropic …; remark: listed apart in the source
human glucagon receptor [5] = target: T2, human glucagon receptor; remark: listed apart in the source
[6] = target: T1, human glucose-dependent insulinotropic …; remark: listed apart in the source
human glucagon receptor [7] = target: T2, human glucagon receptor; remark: listed apart in the source
[8] = target: T3, human glucagon-like peptide-1 receptor; remark: listed apart in the source

Binder	Activity against human GIPR (EC50 nM) [1] [nM]	Activity against human GCGR (EC50 nM) (human glucagon receptor [2]) [nM]	Activity against human GLP-1R (EC50 nM) [3] [nM]	Activity against human GIPR (EC50 nM) [4] [nM]	Activity against human GCGR (EC50 nM) (human glucagon receptor [5]) [nM]	Activity against human GIPR (EC50 nM) [6] [nM]	Activity against human GCGR (EC50 nM) (human glucagon receptor [7]) [nM]	Activity against human GLP-1R (EC50 nM) [8] [nM]
H[Aib]QGTFTSDYSI[αMeL]LEK([AEEA-AEEA-γGlu-C20 diacid])KAAQEFVEWLLAGGPSSGAPPPS-NH2 (N-terminus assumed; SMILES CC[C@H](C)[C@H](NC(=O)[C@H](CO)NC(=O)[C@H](Cc1ccc(O)cc1)NC(=O)[C@H](CC(=O)O)NC(=O)[C@H](CO)NC(=O)[C@@H](NC(=O)[C@H](Cc1ccccc1)NC(=O)[C@@H](NC(=O)CNC(=O)[C@H](CCC(N)=O)NC(=O)C(C)(C)NC(=O)[C@@H](N)Cc1c[nH]cn1)[C@@H](C)O)[C@@H](C)O)C(=O)N[C@@](C)(CC(C)C)C(=O)N[C@@H](CC(C)C)C(=O)N[C@@H](CCC(=O)O)C(=O)N[C@@H](CCCCNC(=O)COCCOCCNC(=O)COCCOCCNC(=O)CC[C@H](NC(=O)CCCCCCCCCCCCCCCCCCC(=O)O)C(=O)O)C(=O)N[C@@H](CCCCN)C(=O)N[C@@H](C)C(=O)N[C@@H](C)C(=O)N[C@@H](CCC(N)=O)C(=O)N[C@@H](CCC(=O)O)C(=O)N[C@@H](Cc1ccccc1)C(=O)N[C@H](C(=O)N[C@@H](CCC(=O)O)C(=O)N[C@@H](Cc1c[nH]c2ccccc12)C(=O)N[C@@H](CC(C)C)C(=O)N[C@@H](CC(C)C)C(=O)N[C@@H](C)C(=O)NCC(=O)NCC(=O)N1CCC[C@H]1C(=O)N[C@@H](CO)C(=O)N[C@@H](CO)C(=O)NCC(=O)N[C@@H](C)C(=O)N1CCC[C@H]1C(=O)N1CCC[C@H]1C(=O)N1CCC[C@H]1C(=O)N[C@@H](CO)C(N)=O)C(C)C) [Compound No. 0155]	0.014	3.65	0.036					
H[Aib]HGTFTSDYSI[αMeL]LEK([AEEA-AEEA-γGlu-C20 diacid])KAAQEFVEWLLAGGPSSGAPPPS-NH2 (N-terminus assumed; SMILES CC[C@H](C)[C@H](NC(=O)[C@H](CO)NC(=O)[C@H](Cc1ccc(O)cc1)NC(=O)[C@H](CC(=O)O)NC(=O)[C@H](CO)NC(=O)[C@@H](NC(=O)[C@H](Cc1ccccc1)NC(=O)[C@@H](NC(=O)CNC(=O)[C@H](Cc1c[nH]cn1)NC(=O)C(C)(C)NC(=O)[C@@H](N)Cc1c[nH]cn1)[C@@H](C)O)[C@@H](C)O)C(=O)N[C@@](C)(CC(C)C)C(=O)N[C@@H](CC(C)C)C(=O)N[C@@H](CCC(=O)O)C(=O)N[C@@H](CCCCNC(=O)COCCOCCNC(=O)COCCOCCNC(=O)CC[C@H](NC(=O)CCCCCCCCCCCCCCCCCCC(=O)O)C(=O)O)C(=O)N[C@@H](CCCCN)C(=O)N[C@@H](C)C(=O)N[C@@H](C)C(=O)N[C@@H](CCC(N)=O)C(=O)N[C@@H](CCC(=O)O)C(=O)N[C@@H](Cc1ccccc1)C(=O)N[C@H](C(=O)N[C@@H](CCC(=O)O)C(=O)N[C@@H](Cc1c[nH]c2ccccc12)C(=O)N[C@@H](CC(C)C)C(=O)N[C@@H](CC(C)C)C(=O)N[C@@H](C)C(=O)NCC(=O)NCC(=O)N1CCC[C@H]1C(=O)N[C@@H](CO)C(=O)N[C@@H](CO)C(=O)NCC(=O)N[C@@H](C)C(=O)N1CCC[C@H]1C(=O)N1CCC[C@H]1C(=O)N1CCC[C@H]1C(=O)N[C@@H](CO)C(N)=O)C(C)C) [Compound No. 0125]				0.002	0.071			
H[Aib]HGTFTSDYS[αMeK]ILEK([AEEA-AEEA-γGlu-C20 diacid])KAAQEFVEWLLAGGPSSGAPPPS-NH2 (N-terminus assumed; SMILES CC[C@H](C)[C@H](NC(=O)[C@](C)(CCCCN)NC(=O)[C@H](CO)NC(=O)[C@H](Cc1ccc(O)cc1)NC(=O)[C@H](CC(=O)O)NC(=O)[C@H](CO)NC(=O)[C@@H](NC(=O)[C@H](Cc1ccccc1)NC(=O)[C@@H](NC(=O)CNC(=O)[C@H](Cc1c[nH]cn1)NC(=O)C(C)(C)NC(=O)[C@@H](N)Cc1c[nH]cn1)[C@@H](C)O)[C@@H](C)O)C(=O)N[C@@H](CC(C)C)C(=O)N[C@@H](CCC(=O)O)C(=O)N[C@@H](CCCCNC(=O)COCCOCCNC(=O)COCCOCCNC(=O)CC[C@H](NC(=O)CCCCCCCCCCCCCCCCCCC(=O)O)C(=O)O)C(=O)N[C@@H](CCCCN)C(=O)N[C@@H](C)C(=O)N[C@@H](C)C(=O)N[C@@H](CCC(N)=O)C(=O)N[C@@H](CCC(=O)O)C(=O)N[C@@H](Cc1ccccc1)C(=O)N[C@H](C(=O)N[C@@H](CCC(=O)O)C(=O)N[C@@H](Cc1c[nH]c2ccccc12)C(=O)N[C@@H](CC(C)C)C(=O)N[C@@H](CC(C)C)C(=O)N[C@@H](C)C(=O)NCC(=O)NCC(=O)N1CCC[C@H]1C(=O)N[C@@H](CO)C(=O)N[C@@H](CO)C(=O)NCC(=O)N[C@@H](C)C(=O)N1CCC[C@H]1C(=O)N1CCC[C@H]1C(=O)N1CCC[C@H]1C(=O)N[C@@H](CO)C(N)=O)C(C)C) [Compound No. 0119]						0.005	0.087	0.023
H[Aib]HGTFTSDYS[αMeK]LLEK([AEEA-AEEA-γGlu-C20 diacid])KAAQEFVEWLLAGGPSSGAPPPS-NH2 (N-terminus assumed; SMILES CC(C)C[C@H](NC(=O)[C@H](CC(C)C)NC(=O)[C@H](Cc1c[nH]c2ccccc12)NC(=O)[C@H](CCC(=O)O)NC(=O)[C@@H](NC(=O)[C@H](Cc1ccccc1)NC(=O)[C@H](CCC(=O)O)NC(=O)[C@H](CCC(N)=O)NC(=O)[C@H](C)NC(=O)[C@H](C)NC(=O)[C@H](CCCCN)NC(=O)[C@H](CCCCNC(=O)COCCOCCNC(=O)COCCOCCNC(=O)CC[C@H](NC(=O)CCCCCCCCCCCCCCCCCCC(=O)O)C(=O)O)NC(=O)[C@H](CCC(=O)O)NC(=O)[C@H](CC(C)C)NC(=O)[C@H](CC(C)C)NC(=O)[C@](C)(CCCCN)NC(=O)[C@H](CO)NC(=O)[C@H](Cc1ccc(O)cc1)NC(=O)[C@H](CC(=O)O)NC(=O)[C@H](CO)NC(=O)[C@@H](NC(=O)[C@H](Cc1ccccc1)NC(=O)[C@@H](NC(=O)CNC(=O)[C@H](Cc1c[nH]cn1)NC(=O)C(C)(C)NC(=O)[C@@H](N)Cc1c[nH]cn1)[C@@H](C)O)[C@@H](C)O)C(C)C)C(=O)N[C@@H](C)C(=O)NCC(=O)NCC(=O)N1CCC[C@H]1C(=O)N[C@@H](CO)C(=O)N[C@@H](CO)C(=O)NCC(=O)N[C@@H](C)C(=O)N1CCC[C@H]1C(=O)N1CCC[C@H]1C(=O)N1CCC[C@H]1C(=O)N[C@@H](CO)C(N)=O) [Compound No. 0112]						0.005	0.087	0.031
H[Aib]HGTFTSDYSILLEK([AEEA-AEEA-γGlu-C20 diacid])KAAQEFVEWLLAGGPSSGAPPPS-NH2 (N-terminus assumed; SMILES CC[C@H](C)[C@H](NC(=O)[C@H](CO)NC(=O)[C@H](Cc1ccc(O)cc1)NC(=O)[C@H](CC(=O)O)NC(=O)[C@H](CO)NC(=O)[C@@H](NC(=O)[C@H](Cc1ccccc1)NC(=O)[C@@H](NC(=O)CNC(=O)[C@H](Cc1c[nH]cn1)NC(=O)C(C)(C)NC(=O)[C@@H](N)Cc1c[nH]cn1)[C@@H](C)O)[C@@H](C)O)C(=O)N[C@@H](CC(C)C)C(=O)N[C@@H](CC(C)C)C(=O)N[C@@H](CCC(=O)O)C(=O)N[C@@H](CCCCNC(=O)COCCOCCNC(=O)COCCOCCNC(=O)CC[C@H](NC(=O)CCCCCCCCCCCCCCCCCCC(=O)O)C(=O)O)C(=O)N[C@@H](CCCCN)C(=O)N[C@@H](C)C(=O)N[C@@H](C)C(=O)N[C@@H](CCC(N)=O)C(=O)N[C@@H](CCC(=O)O)C(=O)N[C@@H](Cc1ccccc1)C(=O)N[C@H](C(=O)N[C@@H](CCC(=O)O)C(=O)N[C@@H](Cc1c[nH]c2ccccc12)C(=O)N[C@@H](CC(C)C)C(=O)N[C@@H](CC(C)C)C(=O)N[C@@H](C)C(=O)NCC(=O)NCC(=O)N1CCC[C@H]1C(=O)N[C@@H](CO)C(=O)N[C@@H](CO)C(=O)NCC(=O)N[C@@H](C)C(=O)N1CCC[C@H]1C(=O)N1CCC[C@H]1C(=O)N1CCC[C@H]1C(=O)N[C@@H](CO)C(N)=O)C(C)C) [Compound No. 0120]						0.002	0.121	0.026
H[Aib]HGTFTSDYS[αMeK]YLEK([AEEA-AEEA-γGlu-C20 diacid])KAAQEFVEWLIEGGPSSGAPPPS-NH2 [Compound No. 0115]						0.051	0.425	0.023
